{
  "source": "patent US20070004636A1",
  "about": "“Method of degrading transcriptional factors of saccharometabolism-associated gene, method for inhibiting the degradation, and agent for inhibiting degradation and degradation inhibitor” (priority 2002, published 2007)",
  "molecules": {"B1": {"name": "human m-calpain: lysate of sf-9 insect cells coexpressing human m-calpain with calpain small subunit 1; FLAG-tagged, expressed in HEK293T cells, in Example 3 (protein, UniProt P17655 20-700; P04632 1-268, looked up)", "Calpain-2 catalytic subunit": "SHDRAIKYLNQDYEALRNECLEAGTLFQDPSFPAIPSALGFKELGPYSSKTRGIEWKRPTEICADPQFIIGGATRTDICQGALGDCWLLAAIASLTLNEEILARVVPLNQSFQENYAGIFHFQFWQYGEWVEVVVDDRLPTKDGELLFVHSAEGSEFWSALLEKAYAKINGCYEALSGGATTEGFEDFTGGIAEWYELKKPPPNLFKIIQKALQKGSLLGCSIDITSAADSEAITFQKLVKGHAYSVTGAEEVESNGSLQKLIRIRNPWGEVEWTGRWNDNCPSWNTIDPEERERLTRRHEDGEFWMSFSDFLRHYSRLEICNLTPDTLTSDTYKKWKLTKMDGNWRRGSTAGGCRNYPNTFWMNPQYLIKLEEEDEDEEDGESGCTFLVGLIQKHRRRQRKMGEDMHTIGFGIYEVPEELSGQTNIHLSKNFFLTNRARERSDTFINLREVLNRFKLPPGEYILVPSTFEPNKDGDFCIRVFSEKKADYQAVDDEIEANLEEFDISEDDIDDGFRRLFAQLAGEDAEISAFELQTILRRVLAKRQDIKSDGFSIETCKIMVDMLDSDGSGKLGLKEFYILWTKIQKYQKIYREIDVDRSGTMNSYEMRKALEEAGFKMPCQLHQVIVARFADDQLIIDFDNFVRCLVRLETLFKIFKQLDPENTGTIELDLISWLCFSVL", "Calpain small subunit 1": "MFLVNSFLKGGGGGGGGGGGLGGGLGNVLGGLISGAGGGGGGGGGGGGGGGGGGGGTAMRILGGVISAISEAAAQYNPEPPPPRTHYSNIEANESEEVRQFRRLFAQLAGDDMEVSATELMNILNKVVTRHPDLKTDGFGIDTCRSMVAVMDSDTTGKLGFEEFKYLWNNIKRWQAIYKQFDTDRSGTICSSELPGAFEAAGFHLNEHLYNMIIRRYSDESGNMDFDNFISCLVRLDAMFRAFKSLDKDGTGQIQVNIQEWLQLTMYS", "modifications": "FLAG tag"}},
  "key": {"[1]": {"tested_on": "human IPF-1", "test": "in vitro protein degradation test of IPF-1 by calpain (Western blotting)", "type": "biochemical", "conditions": "1 hour at 37° C.", "method": "(§1) Using the IPF-1 expression plasmid, synthesis of IPF-1 protein was carried out in vitro using the TNT T7 Quick Coupled Transcription/Translation System. That is, the IPF-1 expression plasmid was mixed with TNT T7 Quick Master Mix, and then incubated for 1.5 hours at 30° C. in the presence of methionine to synthesize IPF-1.\nProtein degradation tests were carried out in vitro by adding μ-calpain or m-calpain to IPF-1, and incubating for 1 hour at 37° C. in the presence of 200 mM Tris-HCl (pH 7.8)/1 mM DTT/6 mM CaCl2. The final concentrations of each calpain in the reaction systems were as follows: 50 units/mL of human μ-calpain; 50 μg/mL of rabbit m-calpain as a protein concentration, and 59 units/mL of rat m-calpain. For a control experiment, IPF-1 was incubated without addition of calpain in the same manner in the presence of calcium. Further, to test for protein degradation in the absence of calcium, a sample was prepared by adding 10 mM of EDTA instead of 6 mM of CaCl2, and incubated in the same manner. The samples after incubation were added to an equal volume of 2×SDS sample buffer, heated for 5 minutes, and subjected to 5-20% SDS-PAGE for separation. Thereafter, Western blotting was carried out to detect IPF-1 using anti-Xpress antibody and anti-IPF1 (PDX-1) antibody/N-18 (Santa Cruz Biotechnology, Inc.). The ECL Western blotting detection kit was used for conducting the detection.\nIn-vitro protein degradation tests were carried out in the same manner as Example 10, but the lysate of sf-9 cells that coexpressed m-calpain with calpain small subunit 1 was used as m-calpain. The final concentration of the lysate of sf-9 cells that expressed these proteins in the reaction system was 2.33 mg/mL as a protein concentration. The final concentration of rat m-calpain in the reaction system was 59 units/mL. Detection of IPF-1 was performed in the same manner as Example 10, but only anti-IPF-1 antibody/N-18 was used."}, "[2]": {"tested_on": "human HNF-4α", "test": "in vitro protein degradation test of HNF-4α by calpain (Western blotting)", "type": "biochemical", "conditions": "1 hour at 37° C.", "method": "as §1, with “HNF-4α” for “IPF-1”, “plasmid, in vitro” for “plasmid,”, “conducted” for “carried out in vitro”, “System (Promega, Inc.).” for “System.”, “HNF-4α.” for “IPF-1.”\nThe in vitro protein degradation test was carried out by adding m-calpain extracted from rabbit muscle (Protease, Calcium-Activated Neutral (calpain), Sigma Chemical Co.) at a final concentration of 50 μg/mL to the synthesized HNF-4α, and then incubating for 1 hour at 37° C. in the presence of 200 mM Tris-HCl (pH 7.8)/1 mM dithiothreitol (DTT)/6 mM CaCl2. To conduct a degradation test in the absence of calcium, a test sample was prepared by adding 10 mM ethylenediaminetetraacetic acid (EDTA) instead of 6 mM CaCl2, and the sample was then incubated in a similar manner. The samples after incubation were added to an equal volume of 2× sodium dodecyl sulfate (SDS) sample buffer (4% SDS/125 mM Tris-HCl, pH 6.8/20% glycerol/0.01% bromphenol blue (BPB)/10% β-mercaptoethanol), heated for 5 minutes, and subjected to 10% SDS-PAGE for separation. Thereafter, Western blotting was carried out to detect HNF-4α using anti-HNF-4α antibody/HNF-4α (C-19) antibody (Santa Cruz Biotechnology, Inc.) and anti-Xpress antibody (Invitrogen, Inc.). An ECL Western blotting detection kit (Amersham pharmacia biotech) was used for the detection.\nThe final concentration of human m-calpain in the reaction system was 2.33 mg/mL as the protein concentration of the lysate of sf-9 cells that expressed human m-calpain. The final concentration of rat m-calpain in the reaction system was 59 units/mL. A degradation test was also conducted in the same manner without addition of calpain. Further, to test for degradation in the absence of calcium, a sample was prepared by adding 10 mM of EDTA instead of 6 mM CaCl2, and a degradation test was conducted with the sample in a similar manner. The samples after incubation were added to an equal volume of 2×SDS sample buffer, heated for 5 minutes, and subjected to 5-20% SDS-PAGE for separation. Thereafter, Western blotting was carried out to detect HNF-4α using anti-HNF-4α antibody/HNF-4α (C-19) antibody. An ECL Western blotting detection kit was used for the detection.\nAn in vitro protein degradation test was carried out by adding μ-calpain to HNF-4α at a final concentration of 50 units/mL, and incubating for 1 hour at 37° C. in the presence of 200 mM Tris-HCl (pH 7.8)/1 mM DTT/6 mM CaCl2. […]"}, "[3]": {"conditions": "in the absence of calcium (10 mM EDTA instead of CaCl2)"}, "[4]": {"conditions": "in the presence of calcium (6 mM CaCl2), Western blotting"}},
  "data": [
    {"molecule": "B1", "values": [
      {"measurement": "degradation of IPF-1", "setting": "[1]; [3]", "value": "not observed"},
      {"measurement": "degradation of IPF-1", "setting": "[1]; [4]", "value": "observed"},
      {"measurement": "degradation of HNF-4α", "setting": "[2]; [3]", "value": "not observed"},
      {"measurement": "degradation of HNF-4α", "setting": "[2]; [4]", "value": "observed"}
    ]}
  ]
}
